Values joined by “and” are separate entries in the source; they are usually repeats but may differ in a detail not shown here. Equal entries are not always repeated.
Key:
[1] = biological target: T1, MnmG from Escherichia coli, wild type (Escherichia coli, UniProt P0A6U3 1-629); assay: SAXS + SEC-MALS; MnmE-GDP-AlFx mixed in 2-fold molar excess with MnmG; SAXS with online HPLC; molecular weight from SAXS and SEC-MALS; conditions: both partners purified
T1 construct: tRNA uridine 5-carboxymethylaminomethyl modification enzyme MnmG (formerly GidA), Escherichia coli; open reading frame cloned in a pET14b vector; Homodimer of 70-kDa subunits; also called GidA; MnmG wt
T1 sequence (looked up): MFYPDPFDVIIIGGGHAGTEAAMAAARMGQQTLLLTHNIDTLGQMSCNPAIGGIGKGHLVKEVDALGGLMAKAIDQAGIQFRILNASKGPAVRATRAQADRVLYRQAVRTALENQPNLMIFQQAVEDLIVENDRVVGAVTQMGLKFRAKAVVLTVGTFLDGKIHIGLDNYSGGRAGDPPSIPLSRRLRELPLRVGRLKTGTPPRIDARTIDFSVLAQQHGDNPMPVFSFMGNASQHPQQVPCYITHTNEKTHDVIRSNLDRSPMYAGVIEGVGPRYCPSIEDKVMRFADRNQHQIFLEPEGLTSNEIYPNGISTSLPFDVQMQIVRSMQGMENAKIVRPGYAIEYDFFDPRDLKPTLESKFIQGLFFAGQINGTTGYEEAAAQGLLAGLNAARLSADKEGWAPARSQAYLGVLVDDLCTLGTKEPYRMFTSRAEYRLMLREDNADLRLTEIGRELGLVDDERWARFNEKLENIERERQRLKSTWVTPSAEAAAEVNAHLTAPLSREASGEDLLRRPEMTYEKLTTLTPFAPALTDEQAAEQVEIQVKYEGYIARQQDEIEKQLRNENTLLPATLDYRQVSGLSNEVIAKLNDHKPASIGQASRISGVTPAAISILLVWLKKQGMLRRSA

[2] = biological target: the molecule itself; assay: SAXS + SEC-MALS; E. coli MnmE without nucleotides; SAXS in batch mode, 20 mM Hepes pH 7.5, 150 mM KCl, 5 mM MgCl2, 2 mM DTT; molecular weight from SAXS and SEC-MALS
[3] = biological target: T1, MnmG from Escherichia coli, wild type; assay: ITC; 278 K; 20 mM Hepes pH 7.5, 150 mM NaCl, 5 mM MgCl2, 2 mM BME, 1 mM FAD; 15 uM in the cell, 300 uM in the syringe; titrated in both directions; one site model; apparent; conditions: both partners purified
[4] = biological target: T1, MnmG from Escherichia coli, wild type; assay: SAXS + SEC-MALS; E. coli MnmE and MnmG mixed equimolar without nucleotides, complex purified by gel filtration; SAXS with online HPLC; molecular weight from SAXS and SEC-MALS; conditions: both partners purified
[5] = biological target: T1, MnmG from Escherichia coli, wild type; assay: ITC; 278 K; 20 mM Hepes pH 7.5, 150 mM NaCl, 5 mM MgCl2, 2 mM BME, 1 mM FAD; variants: 700 uM MnmE in the syringe into 50 uM MnmG in the cell and vice versa; one site model; apparent; conditions: both partners purified
[6] = biological target: T1, MnmG from Escherichia coli, wild type; assay: SEC; analytical gel filtration of 66.7 uM MnmE(E282A)-MnmG complex mixed with 100 uM GTP, aliquots between 0 min and 24 h; 20 mM Hepes pH 7.5, 150 mM KCl, 5 mM MgCl2, 2 mM DTT; conditions: both partners purified
[7] = biological target: the molecule itself; assay: SEC-MALS + other: SAXS; A. aeolicus MnmG alone; SEC-MALS shows mainly monomer and a minor dimer peak; SAXS with online HPLC gel filtration on the dimer peak

B1: MnmE from Escherichia coli, wild type (enzyme, UniProt P25522 1-454, looked up)
chain: MSDNDTIVAQATPPGRGGVGILRISGFKAREVAETVLGKLPKPRYADYLPFKDADGSVLDQGIALWFPGPNSFTGEDVLELQGHGGPVILDLLLKRILTIPGLRIARPGEFSERAFLNDKLDLAQAEAIADLIDASSEQAARSALNSLQGAFSARVNHLVEALTHLRIYVEAAIDFPDEEIDFLSDGKIEAQLNDVIADLDAVRAEARQGSLLREGMKVVIAGRPNAGKSSLLNALAGREAAIVTDIAGTTRDVLREHIHIDGMPLHIIDTAGLREASDEVERIGIERAWQEIEQADRVLFMVDGTTTDAVDPAEIWPEFIARLPAKLPITVVRNKADITGETLGMSEVNGHALIRLSARTGEGVDVLRNHLKQSMGFDTNMEGGFLARRRHLQALEQAAEHLQQGKAQLLGAWAGELLAEELRLAQQNLSEITGEFTSDDLLGRIFSSFCIGK
notes: tRNA modification GTPase MnmE (formerly TrmE), Escherichia coli; open reading frame cloned in a pET20 vector; Homodimer of about 50-kDa subunits; Used nucleotide-free, with GDP-AlFx or with GppNHp depending on the experiment; also called TrmE; MnmE wt
For B1, the “stoichiometry N” value [1] was 2, the “stoichiometry N” value [2] was 2 and the Kd [3] was 3 µM and 7 µM. For the same binder, the “stoichiometry N” value [3] was 0.5 and the “stoichiometry N” value [4] was 1.

B2: MnmE (Y169A, D175A and F176A) with additional S153A (enzyme, Escherichia coli, UniProt P25522 1-454, looked up)
chain: MSDNDTIVAQATPPGRGGVGILRISGFKAREVAETVLGKLPKPRYADYLPFKDADGSVLDQGIALWFPGPNSFTGEDVLELQGHGGPVILDLLLKRILTIPGLRIARPGEFSERAFLNDKLDLAQAEAIADLIDASSEQAARSALNSLQGAFAARVNHLVEALTHLRIAVEAAIAAPDEEIDFLSDGKIEAQLNDVIADLDAVRAEARQGSLLREGMKVVIAGRPNAGKSSLLNALAGREAAIVTDIAGTTRDVLREHIHIDGMPLHIIDTAGLREASDEVERIGIERAWQEIEQADRVLFMVDGTTTDAVDPAEIWPEFIARLPAKLPITVVRNKADITGETLGMSEVNGHALIRLSARTGEGVDVLRNHLKQSMGFDTNMEGGFLARRRHLQALEQAAEHLQQGKAQLLGAWAGELLAEELRLAQQNLSEITGEFTSDDLLGRIFSSFCIGK
notes: MnmE, Escherichia coli, point variant made by QuikChange mutagenesis of the pET20 construct; Variant of m6 with Ser153 also changed to alanine
With B2 the “fold decrease in apparent affinity against wild type” value [5] was at most 10 fold.

B3: MnmE (E282A) (enzyme, Escherichia coli, UniProt P25522 1-454, looked up)
chain: MSDNDTIVAQATPPGRGGVGILRISGFKAREVAETVLGKLPKPRYADYLPFKDADGSVLDQGIALWFPGPNSFTGEDVLELQGHGGPVILDLLLKRILTIPGLRIARPGEFSERAFLNDKLDLAQAEAIADLIDASSEQAARSALNSLQGAFSARVNHLVEALTHLRIYVEAAIDFPDEEIDFLSDGKIEAQLNDVIADLDAVRAEARQGSLLREGMKVVIAGRPNAGKSSLLNALAGREAAIVTDIAGTTRDVLREHIHIDGMPLHIIDTAGLREASDEVARIGIERAWQEIEQADRVLFMVDGTTTDAVDPAEIWPEFIARLPAKLPITVVRNKADITGETLGMSEVNGHALIRLSARTGEGVDVLRNHLKQSMGFDTNMEGGFLARRRHLQALEQAAEHLQQGKAQLLGAWAGELLAEELRLAQQNLSEITGEFTSDDLLGRIFSSFCIGK
notes: MnmE, Escherichia coli, slowly GTP-hydrolysing point variant; Variant of m1; also called slow hydrolyzing mutant MnmE (E282A)
B3: binds [6].

B4: MnmG from Aquifex aeolicus (enzyme, UniProt O66962 1-617, looked up)
chain: MAWVVDEFDVVVIGGGHAGIEAALAAARMGAKTAMFVLNADTIGQMSCNPAIGGIAKGIVVREIDALGGEMGKAIDQTGIQFKMLNTRKGKAVQSPRAQADKKRYREYMKKVCENQENLYIKQEEVVDIIVKNNQVVGVRTNLGVEYKTKAVVVTTGTFLNGVIYIGDKMIPGGRLGEPRSEGLSDFYRRFDFPLIRFKTGTPARLDKRTIDFSALEVAPGDDPPPKFSFWTEPVGSYWFPKGKEQVNCWITYTTPKTHEIIRKNLHRTALYGGLIKGIGPRYCPSIEDKIVKFPDKERHQIFLEPEGLDTIEIYPNGLSTSLPEEVQWEMYRSIPGLENVVLIRPAYAIEYDVVPPTELYPTLETKKIRGLFHAGNFNGTTGYEEAAGQGIVAGINAALRAFGKEPIYLRRDESYIGVMIDDLTTKGVTEPYRLFTSRSEYRLYIRQDNAILRLAKLGRELGLLSEEQYKLVKELEREIEKWKEFYKSERVSVAVGGDTRSYSVATLMTMNYTLDDVKEKFGYEVPQHPYVKEEVEIQLKYEPYIERERKLNEKLKKLEDTKIPPDIDYDKIPGLTKEAREKLKKFKPITVGQASRIDGITPAAITALLVYLGKLD
notes: tRNA uridine 5-carboxymethylaminomethyl modification enzyme MnmG, Aquifex aeolicus; open reading frame cloned in a pET28a vector; Mainly a monomer by SEC-MALS, with a minor dimer peak; SAXS was measured on the dimer peak; also called A. aeolicus MnmG; GidA
With B4 the “stoichiometry N” value [7] was 2.
